Source: patent publication US20210171647A1 (WUXI BIOLOGICS SHANGHAI, published 2021)

What was measured:
[1] = molecular target: T1, human OX40, full-length, on cells (human, UniProt P43489 29-277); assay: flow cytometry, CHO-K1 cells expressing human OX40, MESF beads
T1 construct: whole, on cells; also called hPro1; cell surface human OX40
T1 sequence (looked up): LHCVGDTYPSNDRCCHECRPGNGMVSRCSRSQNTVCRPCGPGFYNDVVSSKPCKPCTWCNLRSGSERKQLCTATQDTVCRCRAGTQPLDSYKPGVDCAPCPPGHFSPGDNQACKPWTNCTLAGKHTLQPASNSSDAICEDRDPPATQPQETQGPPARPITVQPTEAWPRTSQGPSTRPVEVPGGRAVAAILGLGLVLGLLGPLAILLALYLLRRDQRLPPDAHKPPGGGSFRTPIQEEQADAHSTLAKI
Description: CHO-K 1 cells expressing human OX40 were transferred in to 96-well U-bottom plates (Corning) at a density of 5×10⁴ cells/mL. Testing antibodies were 1:2 serially diluted in wash buffer (1×PBS/1% BSA) and incubated with cells at 4° C. for 1 h. The secondary antibody goat anti-human IgG Fc FITC (3.2 moles FITC per mole IgG, Jackson Immunoresearch Lab) was added and incubated with cells at 4° C. in the dark for half an hour. The cells were then washed once, resuspended in 1×PBS/1% BSA and analyzed by flow cytometry (BD). Fluorescence intensity was converted to bound molecules/cell based on the quantitative beads Quantum™ MESF Kits (Bangs Laboratories, Inc.). The KD value of each antibody was calculated using Graphpad Prism5.

human OX40-ECD.His R169A = molecular target: T2, human OX40-ECD.His R169A (human, UniProt P43489 29-214); assay: ELISA, antibody coated, OX40-ECD.His mutant supernatant; relative to silent alanine substitutions;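 also: captured OX40 mutant protein detected with HRP-labelled anti-His antibody, absorbance read-out, scaled to the mean signal of control mutants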
T2 construct: extracellular domain; not shown: C-terminal His-tag
T2 sequence (looked up): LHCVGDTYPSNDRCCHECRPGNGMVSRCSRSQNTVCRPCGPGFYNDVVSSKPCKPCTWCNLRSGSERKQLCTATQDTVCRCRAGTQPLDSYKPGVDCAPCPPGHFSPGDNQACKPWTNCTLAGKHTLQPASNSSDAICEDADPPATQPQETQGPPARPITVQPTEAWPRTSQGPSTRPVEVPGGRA

human OX40-ECD.His L149A = molecular target: T3, human OX40-ECD.His L149A (human, UniProt P43489 29-214); assay: as above
T3 construct: extracellular domain; not shown: C-terminal His-tag
T3 sequence (looked up): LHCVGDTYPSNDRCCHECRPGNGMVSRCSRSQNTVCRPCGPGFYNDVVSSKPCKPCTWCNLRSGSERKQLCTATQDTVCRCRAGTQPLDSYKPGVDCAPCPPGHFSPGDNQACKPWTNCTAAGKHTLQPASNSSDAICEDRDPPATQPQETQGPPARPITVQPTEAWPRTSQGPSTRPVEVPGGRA

human OX40-ECD.His S91A = molecular target: T4, human OX40-ECD.His S91A (human, UniProt P43489 29-214); assay: as above
T4 construct: extracellular domain; not shown: C-terminal His-tag
T4 sequence (looked up): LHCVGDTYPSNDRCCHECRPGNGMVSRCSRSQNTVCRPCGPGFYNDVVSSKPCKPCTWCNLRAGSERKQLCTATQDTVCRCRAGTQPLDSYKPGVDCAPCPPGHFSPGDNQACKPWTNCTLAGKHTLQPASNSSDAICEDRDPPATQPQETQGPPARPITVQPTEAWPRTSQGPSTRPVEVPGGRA

human OX40-ECD.His Q139A = molecular target: T5, human OX40-ECD.His Q139A (human, UniProt P43489 29-214); assay: as above
T5 construct: extracellular domain; not shown: C-terminal His-tag
T5 sequence (looked up): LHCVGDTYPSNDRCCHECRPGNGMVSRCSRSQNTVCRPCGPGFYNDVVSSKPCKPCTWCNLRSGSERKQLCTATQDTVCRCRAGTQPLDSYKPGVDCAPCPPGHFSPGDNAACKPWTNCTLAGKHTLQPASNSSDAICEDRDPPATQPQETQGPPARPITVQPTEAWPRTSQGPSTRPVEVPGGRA

human OX40-ECD.His N146A = molecular target: T6, human OX40-ECD.His N146A (human, UniProt P43489 29-214); assay: as above
T6 construct: extracellular domain; not shown: C-terminal His-tag
T6 sequence (looked up): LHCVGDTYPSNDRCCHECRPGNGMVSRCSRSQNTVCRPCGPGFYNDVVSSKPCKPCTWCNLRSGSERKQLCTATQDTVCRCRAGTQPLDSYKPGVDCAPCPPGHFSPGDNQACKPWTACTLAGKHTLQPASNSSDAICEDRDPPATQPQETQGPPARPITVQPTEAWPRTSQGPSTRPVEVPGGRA

B1: 1.134.9-u1-IgG1L (antibody, V domains shown)
VH: QVQLQESGPGLVKPSGTLSLTCAVSGGSISSYNWWSWVRQPPGKGLEWIGEIYHGGNTNYNPSLKSRVTMSVDNSKNQFSLKLSSVTAADTAVYYCARAPGDWGGSPYFDFWGQGTLVTVSS
VL: SSELTQDPAVSVALGQTVRITCQGDNLRTYYASWYQQKPGQAPILLIYGRNKRPSGIPDRFSGSSSGNTASLTITGAQAEDEAAYYCNSRDSSGNPVVFGGGTKLTVL
notes: fully human IgG1, lambda
Kd [1]: 0.53 nM
Fold Change (human OX40-ECD.His R169A): 1
Fold Change (human OX40-ECD.His L149A): 1
Fold Change (human OX40-ECD.His S91A): 0.886
Fold Change (human OX40-ECD.His Q139A): 0.999
Fold Change (human OX40-ECD.His N146A): 0.73
